Laboratory results: patent US20230287087A1

Biological target: Spike protein of patient-derived SARS-CoV-2 (D614G) (SARS-CoV-2) (UniProt P0DTC2)
Experiment: cell-based or functional assay

| Substance | neutralization by the trimer against the monomer [fold] | partial neutralization [nM] |
| --- | --- | --- |
| VHH-72 ColXVIII trimer | 10000 | – |
| VHH-72 monomer | – | 170 |
